Results from patent US20040053822A1.

Target: HLA-A*0203 (human)
Assay: competition with 125I probe peptide, purified HLA
Settings: not given

Row | IC50 | Substance
1 | 769 nM | MAGE3.174 11-mer … (peptide)

Target: HLA-A*0301 (human)
Assay: competition with 125I probe peptide, purified HLA
Settings: not given

Row | IC50 | Substance
2 | 1000 nM | MAGE2.71 11-mer … (peptide)

Target: HLA-A*6802 (human)
Assay: competition with 125I probe peptide, purified HLA
Settings: not given

Row | IC50 | Substance
3 | 7690 nM | MAGE2.112 11-mer … (peptide)
4 | 4490 nM | MAGE3.174 11-mer … (peptide)

Target: HLA-A2401 (human)
Assay: inhibition of 125I probe peptide binding to purified HLA
Settings: not given

Row | Substance | relative binding ratio (IC50 standard/IC50 peptide)
5 | MAGE3 peptide, position 97, 9 amino acids | 0.0049
6 | MAGE3 peptide, position 142, 9 amino acids | 0.53
7 | MAGE3 peptide, position 195, 9 amino acids | 0.42
8 | MAGE3 peptide, position 195, 10 amino acids | 0.05
9 | MAGE3 peptide, position 270, 9 amino acids | 0.0006

Second part, the substance after the results:

Row | relative binding ratio (IC50 standard/IC50 peptide) | Substance
10 | 0.091 | MAGE3 peptide, position 150, 11 amino acids
11 | 0.026 | MAGE3 peptide, position 221, 11 amino acids
12 | 0.0004 | MAGE3 peptide, position 268, 11 amino acids
13 | 0.042 | MAGE3 peptide, position 300, 8 amino acids
14 | 0.59 | MAGE3 peptide, position 300, 10 amino acids

Target: HLA-A*0301 (human)
Assay: competition vs 125I standard peptide, purified HLA-A*0301
Settings: not given

Row | Substance | relative binding ratio (ratio to standard peptide)
15 | MAGE3 peptide, position 115, 9 amino acids | 0.0045
16 | MAGE3 peptide, position 118, 10 amino acids | 0.0014

Second part, the substance after the results:

Row | relative binding ratio (ratio to standard peptide) | Substance
17 | 0.0066 | MAGE3 peptide, position 115, 10 amino acids
18 | 0.0016 | MAGE3 peptide, position 118, 9 amino acids
19 | 0.0032 | MAGE3 peptide, position 267, 10 amino acids

Target: HLA-A*0301 (human)
Assay: 125I-probe competition, purified HLA
Settings: not given

Row | relative binding ratio | Substance
20 | 0.0045 | MAGE2 and MAGE3 peptide, position 115, 9 amino acids

Target: HLA-A*6802 (human)
Assay: competition with 125I probe peptide, purified HLA, gel filtration
Settings: scale: ratio

Row | relative binding ratio | Substance
21 | 0.0012 | MAGE3 peptide, position 220, 9 amino acids

Target: HLA-A*2401 (human)
Assay: inhibition of 125I-labelled standard peptide binding to purified HLA
Settings: not given

Row | Substance | relative binding ratio (IC50 standard peptide / IC50 test peptide)
22 | MAGE3 142-150 (position 142, 9 amino acids) (peptide) | 0.53
23 | MAGE3 195-203 (position 195, 9 amino acids) (peptide) | 0.42
24 | MAGE3 195-204 (position 195, 10 amino acids) (peptide) | 0.05
25 | MAGE3 221-231 (position 221, 11 amino acids) (peptide) | 0.026
26 | MAGE3 300-307 (position 300, 8 amino acids) (peptide) | 0.042

Results, then the substance that gave them:

Row | relative binding ratio (IC50 standard peptide / IC50 test peptide) | Substance
27 | 0.0049 | MAGE3 97-105 (position 97, 9 amino acids) (peptide)
28 | 0.091 | MAGE3 150-160 (position 150, 11 amino acids) (peptide)
29 | 0.59 | MAGE3 300-309 (position 300, 10 amino acids) (peptide)
